Experimental data from publication PMC3024247.

Biological target: amyloid β-peptide (human, 1-40) (human)
Assay: SPR; Biacore 3000; Aβ immobilised by amine coupling on a CM5 chip; analytes injected in 10 mM HEPES-NaOH pH 7.4, 0.15 M NaCl, 0.0005% Tween 20; 25°C; hMK 0.62-20 μg/ml for the constant, all other analytes 5 μg/ml

Kd: 160 nM
B1: human midkine (natural protein)
chain: VAKKKDKVKKGGPGSECAEWAWGPCTPSSKDCGVGFREGTCGAQTQRIRCRVPCNWKKEFGADCKYKFENWGACDGGTGTKVRQGTLKKARYNAQCQETIRVTKPCTPKTKAKAKAKKGKGKD
